Test results as given in patent US20250276077A1, “EPHA2 ANTIBODIES” (Immunome, Inc., priority 2022, published 2025).
Values belong to the substance of their own block, whether it stands above or below them.

Legend:
[1] = biological target: Human EphA2 (human) (UniProt P29317); assay: IHC/IF on frozen human tumor tissue: PROC
[2] = biological target: Human EphA2 (human) (UniProt P29317); assay: IHC/IF on frozen human tumor tissue: RCC-papillary
[3] = biological target: Human EphA2 (human) (UniProt P29317); assay: IHC/IF on frozen human tumor tissue: TNBC
[4] = biological target: Human EphA2 (human) (UniProt P29317); assay: IHC/IF on frozen human tumor tissue: HNC
[5] = biological target: Human EphA2 (human) (UniProt P29317); assay: IHC/IF on frozen human tumor tissue: RCC-clear cell
[6] = biological target: Human EphA2 (human) (UniProt P29317); assay: IHC/IF on frozen human tumor tissue: Her2+ BRC
[7] = biological target: Human EphA2 (human) (UniProt P29317); assay: IHC/IF on frozen human tumor tissue: ESO
[8] = biological target: Human EphA2 (human) (UniProt P29317); assay: IHC/IF on frozen human tumor tissue: UCEC-clear cell
[9] = biological target: Human EphA2 (human) (UniProt P29317); assay: IHC/IF on frozen human tumor tissue: MELA
[10] = biological target: Human EphA2 (human) (UniProt P29317); assay: IHC/IF on frozen human tumor tissue: ANC
[11] = biological target: Human EphA2 (human) (UniProt P29317); assay: IHC/IF on frozen human tumor tissue: GAC
[12] = biological target: Human EphA2 (human) (UniProt P29317); assay: IHC/IF on frozen human tumor tissue: UCEC-endometrioid
[13] = biological target: Human EphA2 (human) (UniProt P29317); assay: IHC/IF on frozen human tumor tissue: CRC
[14] = biological target: Human EphA2 (human) (UniProt P29317); assay: IHC/IF on frozen human tumor tissue: NSCLC-Adeno
[15] = biological target: Human EphA2 (human) (UniProt P29317); assay: IHC/IF on frozen human tumor tissue: STS
[16] = biological target: Human EphA2 (human) (UniProt P29317); assay: IHC/IF on frozen human tumor tissue: ER+ BRC
[17] = biological target: Human EphA2 (human) (UniProt P29317); assay: IHC/IF on frozen human tumor tissue: URO
[18] = biological target: Human EphA2 (human) (UniProt P29317); assay: IHC/IF on frozen human tumor tissue: UCEC-papillary
[19] = biological target: Human EphA2 (human) (UniProt P29317); assay: IHC/IF on frozen human tumor tissue: PANC
[20] = biological target: Human EphA2 (human) (UniProt P29317); assay: IHC/IF on frozen human tumor tissue: OVA
[21] = biological target: Human EphA2 (human) (UniProt P29317); assay: IHC/IF on frozen human tumor tissue: NSCLC-SQ
[22] = biological target: Human EphA2 (ephrin receptor A2), native, in human tumor tissue (human) (UniProt P29317); assay: tissue staining of human cancer samples, 30 ug/ml (the box on the sheet prints AB-010017 twice)
[23] = biological target: Human EphA2 (ephrin receptor A2), native, in human tumor tissue (human) (UniProt P29317); assay: tissue staining of human cancer samples, 3 ug/ml
[24] = biological target: Human EphA2 (ephrin receptor A2), native, in human tumor tissue (human) (UniProt P29317); assay: tissue staining of human cancer samples, 30 ug/ml

IHC score [1]: 1
IHC score [2]: 1
IHC score [3]: 1
IHC score [4]: 1
IHC score [5]: 1
IHC score [6]: 1
IHC score [7]: 2
IHC score [8]: 2
IHC score [9]: 2
IHC score [10]: 2
IHC score [11]: 1
IHC score [12]: 1
IHC score [13]: 1
IHC score [14]: 1
IHC score [15]: 1
IHC score [16]: 1
IHC score [17]: 1
IHC score [18]: 2
IHC score [19]: 1
IHC score [20]: 1
IHC score [21]: 1
Substance: 6997S (around Arg907) (antibody)

Reactive (% of samples), Bladder Cancer (Urothelial) [22]: 50%
Reactive (% of samples), Breast Cancer [22]: 47%
Reactive (% of samples), Cervical Cancer (Squamous) [22]: 40%
Reactive (% of samples), Colorectal Cancer (Adenocarcinoma) [22]: 40%
Reactive (% of samples), Esophageal Cancer (Squamous) [22]: 27%
Reactive (% of samples), Liver Cancer (HCC) [22]: 80%
Reactive (% of samples), Melanoma [22]: 29%
Reactive (% of samples), Non-Small Cell Lung Cancer [22]: 26%
Reactive (% of samples), Ovarian Cancer [22]: 53%
Reactive (% of samples), Renal Cancer [22]: 0%
Reactive (% of samples), Soft Tissue Sarcoma [22]: 9%
Reactive (% of samples), Stomach Cancer (Adenocarcinoma) [22]: 50%
Reactive (% of samples), Testicular Cancer [22]: 28%
Reactive (% of samples), Thyroid Cancer [22]: 44%
Reactive (% of samples), Uterine Cancer [22]: 21%
Reactive (% of samples), Bladder Urothelial Carcinoma [23]: 33%
Reactive (% of samples), Breast Cancer [23]: 0%
Reactive (% of samples), Cervical Squamous Cell Carcinoma [23]: 0%
Reactive (% of samples), Colorectal Adenocarcinoma [23]: 10%
Reactive (% of samples), Head & Neck Squamous Cell Carcinoma [23]: 0%
Reactive (% of samples), Liver Hepatocellular Cell Carcinoma [23]: 7%
Reactive (% of samples), Melanoma [23]: 0%
Reactive (% of samples), Non-Small Cell Lung Cancer [23]: 5%
Reactive (% of samples), Ovarian Cancer [23]: 0%
Reactive (% of samples), Renal Cancer [23]: 0%
Reactive (% of samples), Soft Tissue Sarcoma [23]: 0%
Reactive (% of samples), Stomach Adenocarcinoma [23]: 0%
Reactive (% of samples), Testicular Cancer [23]: 0%
Reactive (% of samples), Thyroid Cancer [23]: 0%
Reactive (% of samples), Uterine Cancer [23]: 0%
Substance: AB-010016 (based on Medi-547; mouse IgG2a format) (antibody)

Reactive (% of samples), Bladder Urothelial Carcinoma [23]: 50%
Reactive (% of samples), Breast Cancer [23]: 0%
Reactive (% of samples), Cervical Squamous Cell Carcinoma [23]: 27%
Reactive (% of samples), Head & Neck Squamous Cell Carcinoma [23]: 38%
Reactive (% of samples), Liver Hepatocellular Cell Carcinoma [23]: 0%
Reactive (% of samples), Non-Small Cell Lung Cancer [23]: 11%
Reactive (% of samples), Ovarian Cancer [23]: 6%
Reactive (% of samples), Renal Cancer [23]: 0%
Reactive (% of samples), Soft Tissue Sarcoma [23]: 3%
Reactive (% of samples), Stomach Adenocarcinoma [23]: 25%
Reactive (% of samples), Testicular Cancer [23]: 0%
Reactive (% of samples), Thyroid Cancer [23]: 8%
Reactive (% of samples), Bladder Cancer (Urothelial) [24]: 38%
Reactive (% of samples), Breast Cancer [24]: 8%
Reactive (% of samples), Cervical Cancer (Squamous) [24]: 36%
Reactive (% of samples), Colorectal Cancer (Adenocarcinoma) [24]: 10%
Reactive (% of samples), Esophageal Cancer (Squamous) [24]: 13%
Reactive (% of samples), Liver Cancer (HCC) [24]: 43%
Reactive (% of samples), Melanoma [24]: 7%
Reactive (% of samples), Non-Small Cell Lung Cancer [24]: 5%
Reactive (% of samples), Ovarian Cancer [24]: 47%
Reactive (% of samples), Renal Cancer [24]: 12%
Reactive (% of samples), Soft Tissue Sarcoma [24]: 3%
Reactive (% of samples), Stomach Cancer (Adenocarcinoma) [24]: 25%
Reactive (% of samples), Testicular Cancer [24]: 0%
Reactive (% of samples), Thyroid Cancer [24]: 0%
Reactive (% of samples), Uterine Cancer [24]: 7%
Substance: AB-010017 (based on MM-310; mouse IgG2a format) (antibody)

IHC score [1]: 1
IHC score [2]: 1
IHC score [3]: 1
IHC score [4]: 1
IHC score [5]: 1
IHC score [6]: 1
IHC score [7]: 1
IHC score [8]: 2
IHC score [9]: 2
IHC score [10]: 1
IHC score [11]: 1
IHC score [12]: 1
IHC score [13]: 1
IHC score [14]: 2
IHC score [15]: 1
IHC score [16]: 1
IHC score [17]: 1
IHC score [18]: 1
IHC score [19]: 1
IHC score [20]: 1
IHC score [21]: 2
Substance: Ab73254 (extracellular) (antibody)
